Test results as given in PMC10167749, “The catalytic domains of Streptococcus mutans glucosyltransferases: a structural analysis” (Acta Crystallographica. Section F, Structural Biology …, 2023).

Target: T1, catalytic domain of Streptococcus mutans GtfB (GtfB-CD) (Streptococcus mutans (UA159), UniProt P08987 191-1051)
T1 construct: Glucosyltransferase GtfB (GTF-I), Streptococcus mutans UA159, catalytic domain, residues 191-1051 (UniProt P08987); Cloned between NcoI and XhoI of pET-23d; also called GTF-I; source: E. coli BL21(DE3), pET-23d, purified (HisTrap FF, Mono Q, Superdex 200)
T1 sequence: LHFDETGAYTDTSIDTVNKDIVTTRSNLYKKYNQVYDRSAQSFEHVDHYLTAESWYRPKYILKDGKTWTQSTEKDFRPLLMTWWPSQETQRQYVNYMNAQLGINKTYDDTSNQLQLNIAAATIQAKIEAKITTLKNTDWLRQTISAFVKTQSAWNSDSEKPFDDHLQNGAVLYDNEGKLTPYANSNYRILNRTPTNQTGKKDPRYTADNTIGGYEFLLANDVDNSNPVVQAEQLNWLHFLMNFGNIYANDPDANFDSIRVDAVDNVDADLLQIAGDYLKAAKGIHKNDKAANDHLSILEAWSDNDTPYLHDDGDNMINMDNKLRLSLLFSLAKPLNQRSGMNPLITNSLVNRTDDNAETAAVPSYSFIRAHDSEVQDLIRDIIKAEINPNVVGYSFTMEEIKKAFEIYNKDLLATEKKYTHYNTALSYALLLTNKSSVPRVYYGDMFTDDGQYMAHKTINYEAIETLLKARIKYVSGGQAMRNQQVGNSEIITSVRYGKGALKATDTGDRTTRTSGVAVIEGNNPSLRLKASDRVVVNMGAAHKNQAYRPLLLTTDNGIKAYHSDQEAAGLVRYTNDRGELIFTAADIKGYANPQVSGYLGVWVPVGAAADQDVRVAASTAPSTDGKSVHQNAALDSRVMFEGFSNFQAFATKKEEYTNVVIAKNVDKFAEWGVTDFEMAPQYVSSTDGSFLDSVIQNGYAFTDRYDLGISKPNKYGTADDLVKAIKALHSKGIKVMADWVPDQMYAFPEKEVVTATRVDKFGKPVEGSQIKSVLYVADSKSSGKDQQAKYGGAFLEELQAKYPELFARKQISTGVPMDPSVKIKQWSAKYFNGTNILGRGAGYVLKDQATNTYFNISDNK
Assay: SPR; Biacore T200; iSRCR1 immobilised on a CM5 chip by amine coupling; analyte GtfB-CD 2-8 uM in 20 mM HEPES pH 7.4, 150 mM NaCl, 1 mM CaCl2 at 20 ul/min; each concentration in triplicate; kinetic fitting
Details: both partners purified

B1: recombinant scavenger receptor cysteine-rich domain 1 of Gp340 expressed in insect cells (iSRCR1) (domain or fragment)
chain: not shown
notes: Gp340 (salivary agglutinin), scavenger receptor cysteine-rich (SRCR) domain 1; source: recombinant, expressed in insect cells
  Kd: 509 nM
